Assay results published in publication PMC5892705.

Target: human vasopressin V2 receptor (human), P30518

cAMP production, EC50: 109 nM
Binder: UYIQNUPLG (modifications not checked) [[Se-Se]-OT-OH]
